{
  "source": "patent US20190002511A1",
  "key": {"[1]": {"biological_target": "human α-thrombin (recombinant) (human), P00734", "assay": "cell-based or functional assay"}, "[2]": {"biological_target": "human α-thrombin (recombinant) (human), P00734", "assay": "cell-based or functional assay", "remark": "listed apart in the source"}, "[3]": {"biological_target": "human α-thrombin (recombinant) (human), P00734", "assay": "comparison of Ki values"}, "[4]": {"biological_target": "human α-thrombin (recombinant) (human), P00734", "assay": "thrombin amidolytic assay with S2238, Morrison tight-binding fit"}, "[5]": {"biological_target": "human α-thrombin (recombinant) (human), P00734", "assay": "thrombin amidolytic assay with S2238; column headed Affinity (nM)"}, "[6]": {"biological_target": "human α-thrombin (recombinant) (human), P00734", "assay": "assay not named; the printed µM is most likely a misprint of pM (compare Table 5 and paragraph 9)"}},
  "note": "Read-outs that look alike come from different tables or passages of the source.",
  "data": [
    {"binder": "SDEAVRAIPKMYSTAPPGDFEEIPDDAIEE (modifications not checked)", "note": "[ultravariegin]", "values": [
      {"measurement": "IC50, inhibition of thrombin amidolytic activity", "setting": "[1]", "value": 0.26, "unit": "nM"},
      {"measurement": "IC50, inhibition of thrombin amidolytic activity", "setting": "[2]", "value": 0.4, "unit": "nM"},
      {"measurement": "fold more potent than variegin (Ki)", "setting": "[3]", "value": "> 70", "unit": "fold"},
      {"measurement": "fold stronger affinity than avathrin and variegin", "setting": "[3]", "value": "> 200", "unit": "fold"},
      {"measurement": "Ki", "setting": "[4]", "value": 0.0044, "unit": "nM"},
      {"measurement": "Ki", "setting": "[5]", "value": 0.001, "unit": "nM"},
      {"measurement": "Ki", "setting": "[6]", "value": 1500, "unit": "nM"}
    ]}
  ]
}
